Experimental data: US20100190202A1, “NOVEL POPULATION OF HEPATOCYTES DERIVED VIA DEFINITIVE ENDODERM (DE-HEP) FROM HUMAN BLASTOCYSTS STEM CELLS” (Cellartis AB, priority 2007, published 2010)

B1: Activin A: TGF-beta family member used at 100 ng/ml to induce definitive endoderm (protein, UniProt P08476 311-426, looked up)
Inhibin beta A chain: GLECDGKVNICCKKQFFVSFKDIGWNDWIIAPSGYHANYCEGECPSHIAGTSGSSLSFHSTVINHYRMRGHSPFANLKSCCVPTKLRPMSMLYYDDGQNIIKKDIQNMIVEECGCS
modifications: Inhibin beta A chain
notes: TGF-beta family member used at 100 ng/ml to induce definitive endoderm
B2: activin B: activin B, 100 ng/ml, substituted for activin A for induction of endoderm (protein, UniProt P09529 293-407, looked up)
Inhibin beta B chain: GLECDGRTNLCCRQQFFIDFRLIGWNDWIIAPTGYYGNYCEGSCPAYLAGVPGSASSFHTAVVNQYRMRGLNPGTVNSCCIPTKLSTMSMLYFDDEYNIVKRDVPNMIVEECGCA
modifications: Inhibin beta B chain

Legend:
hBS cells = assay: Sox17/Sox7 immunostaining of Activin A treated hBS cell cultures; type: cell-based, human; details: after 4 days in Activin A; of the remaining cells
From the text: We used Activin A, and Activin A in combination with Wnt3a and/or FGF2 to generate DE. After 4 to 5 days in Stage I the hBS cell colony differentiated and genetic markers for early DE were examined using quantitative real-time real time-PCR (Q-PCR). Activin A induced a strong wave of early endoderm at day 3 to 5, and was highlighted by high expression levels of Sox17, HNF3beta (HNF3b or HNF3b) and Cxcr4 expression (FIG. 4) and then reduced to near baseline levels (data not shown). […] Furthermore they up regulate early liver markers like AFP or AAT. At this early stage in differentiation and development, this indicates the presence of extraembryonic endoderm (ExE) in intrinsically differentiating colonies (FIGS. 5 and 10). The expression data were confirmed by co-staining of Sox17/Sox7, Sox17/Cxcr4, Sox17/Oct4, Sox7/HNF3b (data not shown). […] The changes of gene expression after Activin A treatment were associated to morphological changes and distinct differentiation pattern of the colonies (FIG. 2). After 4 to 5 days induction with Activin A containing medium cells gathered together and formed a ring of epithelial cells around the colony. […]
Activin A induces definitive endoderm detected by a combination of Sox17+/Sox7−, 80-90% of the total cells in a Activin A or Activin A/FGF2 treated culture are estimated to be Sox17 positive and negative for Sox7 (manual counting in microscope). […]

hESC line SA002 = assay: Real-time PCR after exposure to activin A or activin B; type: cell-based, human; details: 100 ng/ml, 5 ng/ml bFGF, 5 days
Experimental: Undifferentiated hESC line SA002 were exposed to either activin A (100 ng/ml) or activin B (100 ng/ml) in the presence of 5 ng/ml bFGF for 5 days and analyzed for gene expression.
mRNA expression of Foxa2, Sox17, CXCR4, Sox7, CDX2, AAT was measured by real-time PCR using the ABI/TaqMan method. In short, RNA was isolated from the cell cultures by using Qiagen's RNeasy system. cDNA was synthesized by using the ABI high capacity cDNA synthesis kit. RT-PCR was performed in a ABI 7500 by using TaqMan probe. The expression level was normalized to CREBBP expression.

Molecule	Sox17 positive cells (hBS cells)	mRNA expression of endodermal markers Foxa2, Sox17 and CXCR4 compared to activin A (hESC line SA002)	mRNA expression of extraembryonal markers Sox7, CDX2 and AAT compared to activin A (hESC line SA002)
B1	more than 70%	–	–
B2	–	either the same or even higher	the same or lower
